Measurements: PMC3961392

Biological target: APOBEC3G (human), Q9HC16
Experiment: SEC; 10-15 µg of purified enzyme (low enzyme concentration) on a 10 mL Superdex 200 column; 50 mM Tris pH 7.5, 200 mM NaCl; masses and oligomerization states from a Bio-Rad gel filtration standard curve
Settings: remark: other sources report otherwise

stoichiometry N: 2
B1: APOBEC3G, Q9HC16 1-384 (enzyme)
chain: MKPHFRNTVERMYRDTFSYNFYNRPILSRRNTVWLCYEVKTKGPSRPPLDAKIFRGQVYSELKYHPEMRFFHWFSKWRKLHRDQEYEVTWYISWSPCTKCTRDMATFLAEDPKVTLTIFVARLYYFWDPDYQEALRSLCQKRDGPRATMKIMNYDEFQHCWSKFVYSQRELFEPWNNLPKYYILLHIMLGEILRHSMDPPTFTFNFNNEPWVRGRHETYLCYEVERMHNDTWVLLNQRRGFLCNQAPHKHGFLEGRHAELCFLDVIPFWKLDLDQDYRVTCFTSWSPCFSCAQEMAKFISKNKHVSLCIFTARIYDDQGRCQEGLRTLAEAGAKISIMTYSEFKHCWDTFVDHQGCPFQPWDGLDEHSQDLSGRLRAILQNQEN
